According to patent EP4806514A2 (Lepu Biopharma Co., Ltd., dated 2025):

T1: human CDH16 protein (hCDH16-his, Novoprotein, Cat. No. CJ16) (human, UniProt O75309 19-786)
T1 construct: Bought; also called human CDH16-his
T1 sequence (looked up): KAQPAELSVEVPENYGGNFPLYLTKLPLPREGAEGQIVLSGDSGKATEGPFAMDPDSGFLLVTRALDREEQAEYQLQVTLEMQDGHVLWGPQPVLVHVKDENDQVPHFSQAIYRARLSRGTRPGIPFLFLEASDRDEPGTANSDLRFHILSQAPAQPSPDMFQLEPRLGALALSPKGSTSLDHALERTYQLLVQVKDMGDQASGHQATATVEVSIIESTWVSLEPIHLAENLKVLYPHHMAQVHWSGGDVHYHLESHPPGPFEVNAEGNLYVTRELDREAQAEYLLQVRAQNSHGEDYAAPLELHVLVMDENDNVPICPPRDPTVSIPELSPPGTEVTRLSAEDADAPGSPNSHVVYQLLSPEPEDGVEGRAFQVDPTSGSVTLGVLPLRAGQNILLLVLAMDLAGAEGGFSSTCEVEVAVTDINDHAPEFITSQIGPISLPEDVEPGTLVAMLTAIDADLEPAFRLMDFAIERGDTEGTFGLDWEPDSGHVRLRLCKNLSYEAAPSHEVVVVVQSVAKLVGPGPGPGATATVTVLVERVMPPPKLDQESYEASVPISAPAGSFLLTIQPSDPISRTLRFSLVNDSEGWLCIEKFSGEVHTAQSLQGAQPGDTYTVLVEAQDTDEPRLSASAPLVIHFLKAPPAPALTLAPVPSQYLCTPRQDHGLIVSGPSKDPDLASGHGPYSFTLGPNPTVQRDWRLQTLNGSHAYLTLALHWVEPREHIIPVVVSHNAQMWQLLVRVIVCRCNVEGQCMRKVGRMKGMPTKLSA

T2: hCDH17-his (full length extracellular domain of human CDH17, Q23-M787, his tag at the C-terminal) (human, UniProt Q12864 23-787)
T2 construct: Limits of the construct (UniProt Q12864, Q23-M787, C-terminal his tag); also called human CDH17-his protein; human CDH17 protein
T2 sequence: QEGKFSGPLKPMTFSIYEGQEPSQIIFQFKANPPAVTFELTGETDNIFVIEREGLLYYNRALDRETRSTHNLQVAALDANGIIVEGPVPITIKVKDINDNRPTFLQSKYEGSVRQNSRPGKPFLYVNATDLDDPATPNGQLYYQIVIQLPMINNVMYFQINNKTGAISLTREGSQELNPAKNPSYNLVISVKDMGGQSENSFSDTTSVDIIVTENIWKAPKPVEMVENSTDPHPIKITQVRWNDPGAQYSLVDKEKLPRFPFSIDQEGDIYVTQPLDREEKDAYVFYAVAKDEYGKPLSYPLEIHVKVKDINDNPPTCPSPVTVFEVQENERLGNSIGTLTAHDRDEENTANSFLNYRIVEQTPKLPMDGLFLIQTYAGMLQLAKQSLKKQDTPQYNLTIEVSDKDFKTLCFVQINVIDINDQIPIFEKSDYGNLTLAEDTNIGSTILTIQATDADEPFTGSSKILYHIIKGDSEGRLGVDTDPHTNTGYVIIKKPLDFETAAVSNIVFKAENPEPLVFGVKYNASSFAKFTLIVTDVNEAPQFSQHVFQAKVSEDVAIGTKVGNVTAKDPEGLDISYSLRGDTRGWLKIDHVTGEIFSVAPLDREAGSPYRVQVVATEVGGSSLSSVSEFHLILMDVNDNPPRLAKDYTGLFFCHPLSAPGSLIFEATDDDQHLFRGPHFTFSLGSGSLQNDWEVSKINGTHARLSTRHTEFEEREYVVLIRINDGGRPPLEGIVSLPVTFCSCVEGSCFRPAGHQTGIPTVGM

T3: human CDH17, full length, expressed on cells (HEK293-hCDH17); AsPC-1, HCT-8, AGS, LoVo, KATO III, HT-29 tumor … (human, UniProt Q12864 23-832)
T3 construct: also called human CDH17 expressed on tumor cells
T3 sequence: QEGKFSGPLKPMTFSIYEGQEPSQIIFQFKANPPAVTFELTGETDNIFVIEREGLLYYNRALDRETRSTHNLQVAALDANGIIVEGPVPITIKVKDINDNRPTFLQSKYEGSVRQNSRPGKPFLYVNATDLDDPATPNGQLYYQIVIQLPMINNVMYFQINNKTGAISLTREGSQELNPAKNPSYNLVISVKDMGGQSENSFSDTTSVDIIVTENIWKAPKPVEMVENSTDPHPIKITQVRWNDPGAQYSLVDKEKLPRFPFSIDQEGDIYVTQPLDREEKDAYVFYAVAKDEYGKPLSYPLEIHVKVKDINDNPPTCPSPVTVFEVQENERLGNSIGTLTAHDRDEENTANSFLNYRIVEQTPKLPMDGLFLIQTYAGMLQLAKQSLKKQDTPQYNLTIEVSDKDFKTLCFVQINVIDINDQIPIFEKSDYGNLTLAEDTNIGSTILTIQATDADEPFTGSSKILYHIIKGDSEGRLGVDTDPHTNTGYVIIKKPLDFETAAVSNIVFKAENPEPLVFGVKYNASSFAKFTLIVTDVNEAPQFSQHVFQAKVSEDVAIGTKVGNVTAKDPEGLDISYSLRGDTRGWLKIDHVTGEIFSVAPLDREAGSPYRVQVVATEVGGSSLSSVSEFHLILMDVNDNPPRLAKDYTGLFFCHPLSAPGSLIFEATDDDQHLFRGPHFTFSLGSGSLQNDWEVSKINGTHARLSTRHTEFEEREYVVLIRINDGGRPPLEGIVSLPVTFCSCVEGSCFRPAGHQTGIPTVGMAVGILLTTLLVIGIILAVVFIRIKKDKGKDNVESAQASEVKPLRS


Legend:
[1] = target: T1, human CDH16 protein (hCDH16-his, …); assay: ELISA, hCDH16-his coated at 1 ug/mL
[2] = target: T2, hCDH17-his (full length extracellular …); assay: ELISA, hCDH17-his coated at 2 ug/mL
[3] = target: T3, human CDH17, full length, expressed on …; assay: flow cytometry, HEK293-hCDH17 cells
[4] = target: T3, human CDH17, full length, expressed on …; assay: flow cytometry, HCT-8 cells
[5] = target: T2, hCDH17-his (full length extracellular …); assay: SPR (Biacore 8K), two doses, antibody captured on Protein A chip, hCDH17-his at 25 nM and 100 nM
[6] = target: T3, human CDH17, full length, expressed on …; assay: flow cytometry, LoVo, HCT-8 and AsPC1 cells

Row | Binder | binding result [2] | binding result [3] | binding result [4] | binding result [5] | binding result [6] | binding result [1]
1 | 29D2D7-z19p3 (antibody, V domains shown, PTM-removed variant of 29D2D7-z19; VH is that of 29D2D7-z19) VH: QVQLVQSGAEVKKPGASVKVSCKASGYTFTDYDMHWVKQAPGQGLEWIGGFDPESAGTVYNLRFKDKATLTADKSTSTAYMELRSLRSEDTAVYYCARKGYYSVSSPFTYWGQGTLVTVSS VL: not shown |  |  | binds | binds |  | 
2 | 29D2D7-z19p5 (antibody, V domains shown, PTM-removed variant of 29D2D7-z19; VH is that of 29D2D7-z19) VH: QVQLVQSGAEVKKPGASVKVSCKASGYTFTDYDMHWVKQAPGQGLEWIGGFDPESAGTVYNLRFKDKATLTADKSTSTAYMELRSLRSEDTAVYYCARKGYYSVSSPFTYWGQGTLVTVSS VL: not shown |  |  | binds | binds |  | 
3 | 69E3H11-z12a19 (antibody, V domains shown) VH: QVQLVQSGAEVKKPGASVKVSCKASGYTFTTYWMHWVKQAPGQRLEWIGEIDPSDSYANYNQKFKGKATLTVDKSASTAYMELSSLRSEDTAVYYCALYYGYGDWGQGTTVTVSS VL: EIVLTQSPGTLSLSPGERATLSCSVSSSISKIHLHWYQQKPGQAPRLLIYRTSNLASGIPDRFSGSGSGTDFTLTISRLEPEDFAVYYCQQGSNLPLTFGQGTRLEIK |  |  |  | binds | binds | 
4 | 69E3H11-z12a26 (antibody, V domains shown) VH: QVQLVQSGAEVKKPGASVKVSCKASGYTFTTYWMHWVKQAPGQRLEWIGEIDPSDSYANYNQKFKGKATLTVDKSASTAYMELSSLRSEDTAVYYCALYYGYGDWGQGTTVTVSS VL: EIVLTQSPGTLSLSPGERATLSCSVSSSISSIHLHWYQQKPGQAPRLLIYRTRNLASGIPDRFSGSGSGTDFTLTISRLEPEDFAVYYCQQGSNLPLTFGQGTRLEIK |  |  |  | binds | binds | 
5 | 69E3H11-z12a21 (antibody, V domains shown) VH: QVQLVQSGAEVKKPGASVKVSCKASGYTFTTYWMHWVKQAPGQRLEWIGEIDPSDSYANYNQKFKGKATLTVDKSASTAYMELSSLRSEDTAVYYCALYYGYGDWGQGTTVTVSS VL: EIVLTQSPGTLSLSPGERATLSCSVSASISRIHLHWYQQKPGQAPRLLIYRTSNLASGIPDRFSGSGSGTDFTLTISRLEPEDFAVYYCQQGSNLPLTFGQGTRLEIK |  |  |  | binds | binds | 
6 | 69E3H11-z12a42 (antibody, V domains shown) VH: QVQLVQSGAEVKKPGASVKVSCKASGYTFTTYWMHWVKQAPGQRLEWIGEIDPSDSYANYNQKFKGKATLTVDKSASTAYMELSSLRSEDTAVYYCALYYGYGDWGQGTTVTVSS VL: EIVLTQSPGTLSLSPGERATLSCSVSASISRIHLHWYQQKPGQAPRLLIYRTRNRASGIPDRFSGSGSGTDFTLTISRLEPEDFAVYYCQQGSNLPLTFGQGTRLEIK |  |  |  | binds | binds | 
7 | 69E3H11-z12a27 (antibody, V domains shown) VH: QVQLVQSGAEVKKPGASVKVSCKASGYTFTTYWMHWVKQAPGQRLEWIGEIDPSDSYANYNQKFKGKATLTVDKSASTAYMELSSLRSEDTAVYYCALYYGYGDWGQGTTVTVSS VL: EIVLTQSPGTLSLSPGERATLSCSVSSSISSIHLHWYQQKPGQAPRLLIYRTRNRASGIPDRFSGSGSGTDFTLTISRLEPEDFAVYYCQQGSNLPLTFGQGTRLEIK |  |  |  | binds | binds | 

Now from value to binder, other results behind:

Row | binding result [2] | binding result [3] | binding result [4] | binding result [5] | binding result [6] | Binder | binding result [1]
8 | binds | binds |  |  |  | 16C18 chimeric mAb (antibody, V domains shown, also called 16C8) VH: QVQLQQSGAELAKPGTSVKMSCKASGYNFTNYWMNWVKQRPGQGLEWIGTFNPSYGYTEYNQKFKDKAILTADKSSSTAYMQLNSLTSEDSAVYYCARRSSHFDYWGQGTTLTVSS VL: DIVMSQSPSSLAVSAGEKVTMSCKSSQSLLNSRTRTNYLAWYQQKPGQSPKLLIYWASTRESGVPDRFTGSGSGTDFTLTISSVQAEDLAVYYCKQSYNLPTFGGGTKLEIK | no binding (tested: titrated from 100 nM)
9 |  |  |  | binds | binds | 69E3H11-z12a28 (antibody, V domains shown) VH: QVQLVQSGAEVKKPGASVKVSCKASGYTFTTYWMHWVKQAPGQRLEWIGEIDPSDSYANYNQKFKGKATLTVDKSASTAYMELSSLRSEDTAVYYCALYYGYGDWGQGTTVTVSS VL: EIVLTQSPGTLSLSPGERATLSCSVSSSISSIHLHWYQQKPGQAPRLLIYRTKNLASGIPDRFSGSGSGTDFTLTISRLEPEDFAVYYCQQGSNLPLTFGQGTRLEIK | 
10 |  |  |  | binds | binds | 69E3H11-z12a20 (antibody, V domains shown) VH: QVQLVQSGAEVKKPGASVKVSCKASGYTFTTYWMHWVKQAPGQRLEWIGEIDPSDSYANYNQKFKGKATLTVDKSASTAYMELSSLRSEDTAVYYCALYYGYGDWGQGTTVTVSS VL: EIVLTQSPGTLSLSPGERATLSCSVSSSISRIHLHWYQQKPGQAPRLLIYRTSNLASGIPDRFSGSGSGTDFTLTISRLEPEDFAVYYCQQGSNLPLTFGQGTRLEIK | 
11 | binds | binds |  |  |  | 120B10C5 chimeric mAb (antibody, V domains shown, Mouse variable regions fused to human IgG1 constant region) VH: QVQLQQSGAELAKPGASVKLSCRTSGYTFTNYWMHWVKQRPGQGLEWIGYINPSSGYTKYNQKFKDKATLTADKSSSTAYMQLSSLTYEDSAVHYCARSLNYYDSGYWYFDVWGTGTAVTVSS VL: DIVLTQSPASLAVSLGQRATISCRASQSVSTSSYSYMHWYQQKPGQPPKLLIKYASNLESRVPARFSGSGSGTDFTLNIHPVEEEDSATYYCQHSWEIPWTFGGGTKLEIK | no binding (tested: titrated from 100 nM)
